Data: PMC6182155 (Nucleic Acids Research, 2018)
Residue numbers refer to the chain shown, from its start. Names may count otherwise.

B1: EcoKMcrA with C-terminal His6-tag (EcoKMcrA_(1-277)-GHHHHHHG), wild type (enzyme, E. coli (K strains), UniProt P24200 1-277, looked up)
chain: MHVFDNNGIELKAECSIGEEDGVYGLILESWGPGDRNKDYNIALDYIIERLVDSGVSQVVVYLASSSVRKHMHSLDERKIHPGEYFTLIGNSPRDIRLKMCGYQAYFSRTGRKEIPSGNRTKRILINVPGIYSDSFWASIIRGELSELSQPTDDESLLNMRVSKLIKKTLSQPEGSRKPVEVERLQKVYVRDPMVKAWILQQSKGICENCGKNAPFYLNDGNPYLEVHHVIPLSSGGADTTDNCVALCPNCHRELHYSKNAKELIEMLYVNINRLQK
B2: EcoKMcrA K196E variant with N-terminal His6-tag (…-EcoKMcrA_(1-277)) (enzyme, E. coli (K strains), UniProt P24200 1-277, looked up)
chain: B1 chain with K196E

How the values were obtained:
[1] = target: the molecule itself; test: SEC
[2] = target: the molecule itself; test: crystal structure

Protein	stoichiometry N [1]	binding result [2]
B1	2	–
B2	–	binds
